The target of series [1] is T1, LRA-12 (uncultured bacterium BLR12, UniProt B5L5V5).
T1 construct: gene blaLRA-12; pET28a(+) in E. coli BL21(DE3), N-terminal His tag cut by thrombin; mature enzyme of 269 residues (Gln26-Asn306 in BBL numbering); di-zinc
Kind of series: residual ertapenem hydrolysis, UV absorbance. The class given is biochemical.

Series [2] relates to CC(=O)OCC1=C(C(=O)O)N2C(=O)[C@@H](NC(=O)Cc3cccs3)[C@H]2SC1. Kind of series: purified protein. The class given is biochemical, uncultured bacterium BLR12. The settings on record: 10 mM HEPES, 20 mM NaCl, pH 7.5, room temperature.
Series [3] has as its system CC(C)(O/N=C(\C(=O)N[C@@H]1C(=O)N2C(C(=O)[O-])=C(C[n+]3ccccc3)CS[C@H]12)c1csc(N)n1)C(=O)O. Kind of series: purified protein. The class given is biochemical, uncultured bacterium BLR12. The settings on record: 10 mM HEPES, 20 mM NaCl, pH 7.5, room temperature.
In series [4] the test system is CC1(C)S[C@@H]2[C@H](NC(=O)Cc3ccccc3)C(=O)N2[C@H]1C(=O)O. Kind of series: purified protein. The class given is biochemical, uncultured bacterium BLR12. The settings on record: 10 mM HEPES, 20 mM NaCl, pH 7.5, room temperature.
For series [5], the system named is CCN1CCN(C(=O)N[C@@H](C(=O)N[C@@H]2C(=O)N3[C@@H]2SC(C)(C)[C@@H]3C(=O)O)c2ccccc2)C(=O)C1=O. Kind of series: purified protein. Format: biochemical, uncultured bacterium BLR12. The conditions noted are these: 10 mM HEPES, 20 mM NaCl, pH 7.5, room temperature.
In series [6] the test system is CO/N=C(\C(=O)N[C@@H]1C(=O)N2C(C(=O)O)=C(COC(C)=O)CS[C@H]12)c1csc(N)n1. Description: purified protein. Format: biochemical, uncultured bacterium BLR12. The conditions noted are these: 10 mM HEPES, 20 mM NaCl, pH 7.5, room temperature.
Series [7] relates to CO/N=C(\C(=O)N[C@@H]1C(=O)N2C(C(=O)O)=C(COC(N)=O)CS[C@H]12)c1ccco1. Kind of series: purified protein. The class given is biochemical, uncultured bacterium BLR12. The conditions noted are these: 10 mM HEPES, 20 mM NaCl, pH 7.5, room temperature.
Series [8] relates to CO/N=C(\C(=O)N[C@@H]1C(=O)N2C(C(=O)[O-])=C(C[N+]3(C)CCCC3)CS[C@H]12)c1csc(N)n1. Description: purified protein. The class given is biochemical, uncultured bacterium BLR12. The conditions noted are these: 10 mM HEPES, 20 mM NaCl, pH 7.5, room temperature.
Series [9] deals with CO[C@@]1(NC(=O)Cc2cccs2)C(=O)N2C(C(=O)O)=C(COC(N)=O)CS[C@@H]21. Kind of series: purified protein. Format: biochemical, uncultured bacterium BLR12. The settings on record: 10 mM HEPES, 20 mM NaCl, pH 7.5, room temperature.
Series [10] relates to C[C@@H](O)[C@H]1C(=O)N2C(C(=O)O)=C(SCCN=CN)C[C@H]12. Kind of series: purified protein. Format: biochemical, uncultured bacterium BLR12. The settings on record: 10 mM HEPES, 20 mM NaCl, pH 7.5, room temperature.
Series [11] relates to C[C@@H](O)[C@H]1C(=O)N2C(C(=O)O)=C(S[C@@H]3CN[C@H](C(=O)N(C)C)C3)[C@H](C)[C@H]12. Kind of series: purified protein. The class given is biochemical, uncultured bacterium BLR12. The conditions noted are these: 10 mM HEPES, 20 mM NaCl, pH 7.5, room temperature.
The test system of series [12] is C[C@@H](O)[C@H]1C(=O)N2C(C(=O)O)=C(S[C@@H]3CN[C@H](C(=O)Nc4cccc(C(=O)O)c4)C3)[C@H](C)[C@H]12. Description: purified protein. Format: biochemical, uncultured bacterium BLR12. The settings on record: 10 mM HEPES, 20 mM NaCl, pH 7.5, room temperature.
Series [13] deals with T1, LRA-12. Kind of series: competition with ceftazidime hydrolysis, UV absorbance. The class given is biochemical.

As a reminder, the IC50 is the midpoint of a concentration-inhibition curve. Read a high IC50 as lower potency. A word on the Km: it is the concentration of substrate that gives half-maximal velocity. By kcat is commonly meant the number of substrate molecules converted per active site and unit of time at saturation. For orientation: kcat/Km means the second-order rate constant that governs catalysis at low substrate concentration. What is called Ki is the dissociation constant of the complex between target and ligand, obtained from inhibition or displacement.

T1 sequence (B5L5V5 entry or part of it): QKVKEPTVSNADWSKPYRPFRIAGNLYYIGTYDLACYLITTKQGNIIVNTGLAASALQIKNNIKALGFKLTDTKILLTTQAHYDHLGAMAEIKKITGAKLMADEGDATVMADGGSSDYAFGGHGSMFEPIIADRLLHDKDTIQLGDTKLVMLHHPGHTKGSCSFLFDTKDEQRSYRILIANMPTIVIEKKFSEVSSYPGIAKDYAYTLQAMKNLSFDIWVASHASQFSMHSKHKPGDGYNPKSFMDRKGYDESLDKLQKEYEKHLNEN

The molecule `O=C(O)c1cccc(C(=O)O)n1` [DPA, pyridine-2,6-dicarboxylic acid] displayed an IC50 in series [1] of 460 µM.
For the molecule LRA-12 (uncultured bacterium BLR12), the Km was found to be 11 ± 2 µM in series [2]; 59 ± 8 µM in [3]; 47 ± 4 µM in [4]; 83 ± 9 µM in series [5]; 36 ± 4 µM in series [6]; 20 ± 3.4 µM in [7]. The Km was found to be 93 ± 13 µM in series [8]; 4 ± 0.6 µM in series [9]; 39 ± 7 µM in [10]; 113 ± 20 µM in series [11]; 43 ± 6 µM in series [12]. Besides, the kcat in series [2] is 18 ± 0.8 s⁻¹; in series [3], 12 ± 0.8 s⁻¹; in series [4], 70 ± 2 s⁻¹; in series [5], 74 ± 3 s⁻¹; in series [6] it was 7 ± 0.3 s⁻¹; in series [7], 16 ± 0.9 s⁻¹. In addition, the kcat came out at 15 ± 1.4 s⁻¹ in series [8]; 7 ± 0.4 s⁻¹ in series [9]; 66 ± 5 s⁻¹ in [10]; 95 ± 11 s⁻¹ in [11]; 57 ± 4 s⁻¹ in series [12]. The kcat/Km was determined as 1.64e+06 ± 370000 M⁻¹ s⁻¹ in series [2]; 200000 ± 40000 M⁻¹ s⁻¹ in series [3]; 1.49e+06 ± 150000 M⁻¹ s⁻¹ in series [4]; 890000 ± 130000 M⁻¹ s⁻¹ in series [5]; 190000 ± 30000 M⁻¹ s⁻¹ in series [6]; 800000 ± 190000 M⁻¹ s⁻¹ in series [7]. The kcat/Km in series [8] came to 160000 ± 40000 M⁻¹ s⁻¹; in [9], 1.75e+06 ± 320000 M⁻¹ s⁻¹; in series [10], 1.69e+06 ± 420000 M⁻¹ s⁻¹; in series [11] it was 840000 ± 230000 M⁻¹ s⁻¹; in series [12], 1.33e+06 ± 270000 M⁻¹ s⁻¹.
In series [1], `O=C(O)CN(CCN(CC(=O)O)CC(=O)O)CC(=O)O` [EDTA] showed an IC50 of 113 µM.
In series [13], `C[C@H]1[C@H](NC(=O)/C(=N\OC(C)(C)C(=O)O)c2csc(N)n2)C(=O)N1S(=O)(=O)O` [aztreonam] showed a Ki of 146 µM.

The values are drawn from publication PMC5531557, “Crystal structure and kinetic analysis of the class B3 di-zinc metallo-β-lactamase LRA-12 from an Alaskan soil metagenome” (PLoS ONE, 2017).
